B1: PPFIA4 (parent)
chain: PGVHRRYSALREESAKDWETSPLP
B2: PCDHGA10 (parent)
chain: FHELQMQVTASDSGDPPLSSNVSL

Variants of: B1
Assay: protein stability index of a GFP-peptide fusion (GPS, HEK-293T) (PSI 1-6); higher = more stable
Conditions: c terminus: a fixed tail appended
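Also: lentivirally expressed fusions sorted by FACS into six bins by GFP to DsRed ratio, PSI derived from sequencing read proportions per bin multiplied by bin number.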

Protein stability index: each site, then its substitutions
E12: T 4.02 | N 4.23 | C 3.57 | Q 3.68 | R 3.45 | I 3.21 | W 3.11 | A 3.94 | M 3.56 | K 3.96 | S 3.68 | G 4.62 | Y 3.48
T20: M 4.37 | A 4.05 | K 4.17 | C 3.75 | R 3.66 | L 3.36 | E 4.62 | V 2.73 | P 4.6 | N 4.55 | W 2.3 | S 4.83 | H 4.47
S8: E 4.35 | W 2.08 | H 3.76 | T 2.88 | P 4.28 | V 3.67 | Q 4.86 | F 3.08 | N 4.34 | K 4.64 | R 4.07 | D 4.97 | C 3.16
D17: W 1.97 | P 3.04 | A 3.29 | C 3.53 | I 3.33 | V 3.86 | S 4.16 | T 3.31 | K 3.36 | Q 3.39
Y7: Q 4.9 | S 4.58 | M 4.56 | V 4.49 | H 4.39 | D 4.38 | E 5.25 | N 4.5 | T 4.27 | I 4.34 | W 4.2
A9: K 4.03 | M 3.86 | H 3.92 | C 3.67 | Q 3.5 | T 4.19 | V 4.12 | N 4.4 | S 4.22 | Y 3.4 | P 2.93 | E 3.92
G2: S 4.28 | T 4.67 | N 4.5 | D 4.4 | R 4.11 | W 4.36 | Q 4.43 | Y 4.08 | C 3.42
P22: V 3.68 | E 4.94 | F 3.19 | T 3.04 | Q 4.63 | S 4.31 | H 4.28 | L 3.67 | Y 3.3 | R 3.18
S14: L 3.93 | K 5 | Q 3.63 | N 4.69 | W 2.81 | R 3.07 | V 3.92 | H 4.19 | M 3.41 | I 4.05
P1: Q 4.18 | G 4.03 | I 4.16 | A 3.5 | L 3.11 | M 3.51 | V 3.74 | E 3.49 | D 3.93 | N 3.88 | Y 4.17 | C 2.65 | F 3.63
A15: E 4.52 | W 3.86 | R 4 | H 4.39 | M 2.77 | K 4.59 | Q 3.63 | V 3.89 | D 4.92 | C 3.63 | N 3.92 | S 3.76 | G 4.07
R6: T 4.35 | I 3.39 | Q 4.31 | F 3.74 | Y 3.62 | L 3.04 | A 4.49 | N 4.48 | P 3.91 | W 2.71 | K 4.65 | G 3.98 | H 3.65 | E 4.88
H4: A 4.25 | I 4.14 | R 3.42 | T 4.36 | Y 4.81 | D 4.37 | P 4.33
P24: G 4.25 | L 3.62 | I 3.87 | F 3.59 | C 4.22 | K 4.6 | V 4.15 | N 4.43 | E 4.71 | D 4.59
R11: P 4.19 | S 4.55 | M 4.45 | F 3.59 | G 3.41 | C 4.37 | W 3.16 | Q 4.65 | A 4.31 | L 3.86 | T 4.88 | N 4.58 | I 3.92 | K 4.36 | D 4.82 | E 5.29
L23: I 4.26 | N 5 | D 4.55 | S 4.56 | Q 4.37 | Y 3.87 | E 3.3 | F 4.27 | K 5.38 | M 4.79
L10: S 4.53 | M 4.31 | T 4.97 | P 4.97 | D 4.97 | A 3.69 | Y 4.02 | K 4.69 | I 4.15 | V 4.26 | N 4.79 | W 4.31 | H 4.48 | C 2.28
E13: T 3.51 | H 2.63 | I 3.45 | P 3.11 | D 3.74 | N 3.42 | M 2.96 | Q 4.04 | G 3.93 | K 3.69 | F 3.8
K16: Q 3.67 | L 4.05 | V 4.2 | S 4.13 | P 3.89 | C 4.02 | R 3.99 | F 3.17 | M 4.24 | H 4.17 | A 3.7 | I 3.96 | D 4.45 | N 4.66
V3: R 4.33 | S 3.89 | M 5.03 | D 4.89 | N 4.45 | Y 3.55 | T 4.7 | Q 4.42 | E 4.33 | P 4.6 | F 4.02
R5: V 3.67 | A 4.86 | C 2.68 | M 4.71 | S 4.58 | D 5.06 | L 3.99 | P 4.54 | H 4.27 | F 3.99 | Q 4.6 | W 3.81
E19: V 3.24 | K 3.68 | C 3 | M 2.93 | R 3.55 | F 2.4 | H 3.41 | Q 4.18 | L 3.97 | D 4.03 | W 2.41 | A 2.97
S21: I 3.39 | D 5.1 | L 3.6 | P 4.08 | V 3.76 | G 3.25 | H 3.42 | F 3.34 | C 3.88 | W 4.24 | Y 3.2 | A 4.93 | Q 4.24 | K 3.98
W18: G 5.21 | M 5.08 | Y 4.73 | I 4.81 | F 4.4 | V 4.67 | K 4.7 | Q 4.77 | T 5.24 | R 4.42 | D 5.58 | C 5.36 | N 5.29 | L 4.96

Variants of: B2
Assay: as above
Conditions: c terminus: a fixed tail appended

Protein stability index, by site and new letter:
V22: M 2.34 | R 2.69 | W 2.05 | Q 2.43 | Y 2.56 | S 3.11 | L 2.71 | P 2.34 | N 2.77 | T 2.83
L24: G 2.52 | H 2.84 | I 1.83 | R 2.75 | F 2.06 | V 2.72 | T 3.22 | E 3.07 | P 2.9 | Q 3.26 | D 3.17 | M 2.68 | W 2.64 | C 2.84 | K 2.79 | Y 2.31 | N 2.96 | A 3.29 | S 3.29
S23: A 2.15 | F 2.39 | K 2.84 | R 2.51 | D 3.16 | Q 2.1 | G 2.01 | Y 1.75 | T 2.18 | H 2.14 | V 2.05 | I 1.89 | C 1.72 | M 2.15 | P 2.82 | L 2.05 | E 3.33 | W 2.08 | N 2.46
